Patent US7964369

Target: bacterial recombinant GST-GRAIL fusion protein, Q9D304
Sequence (Q9D304 whole entry, looked up, the tested form may be a part): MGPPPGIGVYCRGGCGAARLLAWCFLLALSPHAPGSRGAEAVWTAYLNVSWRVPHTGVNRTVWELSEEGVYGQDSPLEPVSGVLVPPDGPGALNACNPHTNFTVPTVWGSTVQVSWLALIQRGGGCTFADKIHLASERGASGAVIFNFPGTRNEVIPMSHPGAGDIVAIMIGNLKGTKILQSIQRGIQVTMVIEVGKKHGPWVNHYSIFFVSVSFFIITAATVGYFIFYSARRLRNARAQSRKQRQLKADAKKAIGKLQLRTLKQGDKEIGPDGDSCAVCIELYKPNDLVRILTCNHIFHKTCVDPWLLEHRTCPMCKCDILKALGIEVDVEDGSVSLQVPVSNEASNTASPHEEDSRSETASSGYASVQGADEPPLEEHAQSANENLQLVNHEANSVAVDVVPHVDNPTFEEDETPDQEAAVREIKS

B1: USP8 expressed in E. coli (pET28) (protein)
chain: MPAVASVPKELYLSSSLKDLNKKTEVKPEKTSTKNYIHSAQKIFKTAEECRLDRDEERAYVLYMKYVAVYNLIKKRPDFKQQQDYYLSILGPANIKKAIEEAERLSESLKLRYEEAEVRKQLEEKDRREEEQLQQQKRQEMGREDSGAAAKRSVENLLDSKTKTQRINGEKSEGAAAAERGAITAKELYTMMMDKNTSLIIMDARKIQDYQHSCILDSLSVPEEAISPGVTASWIEANLSDDSKDTWKKRGSVDYVVLLDWFSSAKDLLLGTTLRSLKDALFKWESKTVLRHEPLVLEGGYENWLLCYPQFTTNAKVTPPPRSRAEEVSVSLDFTYPSLEEPVPSKLPTQMPPPPIETNEKALLVTDQDEKLRLSTQPALAGPGAAPRAEASPIIQPAPATKSVPQVDRTKKPSVKLPEDHRIKSENTDQSGRVLSDRSTKPVFPSPTTMLTDEEKARIHQETALLMEKNKQEKELWDKQQKEQKEKLRREEQERKAGKTQDADERDSTENQHKAKDGQEKKDSKQTKTEDRELSADGAQEATGTQRQSKSEHEASDAKVPVEGKRCPTSEAQKRPADVSPASVSGELNAGKAQREPLTRARSEEMGRIVPGLPLGWAKFLDPITGTFRYYHSPTNTVHMYPPEMAPSSAPPSTPPTHKVKPQVPAERDREPSKLKRSYSSPDITQALQEEEKRRPAVTPMVNRENKPPCYPKAEISRLSASQIRNLNPVFGGSGPALTGLRNLGNTCYMNSILQCLCNAPHLADYFNRNCYQDDINRSNLLGHKGEVAEEFGIIMKALWTGQYRYISPKDFKVTIGKINDQFAGSSQQDSQELLLFLMDGLHEDLNKADNRKRHKEENNEHLDDLQAAEHAWQKHKQLNESIIVALFQGQFKSTVQCLTCRRRSRTFEAFMYLSLPLASTSKCTLQDCLRLFSKEEKLTDNNRFYCSHCRARRDSLKKIEIWKLPPVLLVHLKRFSYDGRWKQKLQTSVDFPLENLDLSQYVIGPKNSLKKYNLFSVSNHYGGLDGGHYTAYCKNAARQRWFKFDDHEVSDISVSSVRSSAAYILFYTSLGPRITDVAT
- de-ubiquitination of auto-ubiquitinated GST-GRAIL in vitro: USP8 is capable of de-ubiquitinating GRAIL in vitro
